In patent publication US20240002497A1 (Merck Sharp & Dohme, published 2024):
Read-outs that look alike come from different tables or passages of the source. Each block holds one binder with its values, some of them ahead of it.

How the values were obtained:
[1] = target: rhNav1.7α + β1-β2-β3 (rhesus monkey); assay: cell-based or functional assay
[2] = target: huNav1.7α + β1 (human); assay: cell-based or functional assay
[3] = target: rhNav1.7α + β1-β2-β3 (rhesus monkey); assay: cell-based or functional assay; remark: listed apart in the source
[4] = target: huNav1.7α + β1 (human); assay: cell-based or functional assay; remark: listed apart in the source
[5] = target: T1, huNav1.7α + β1-β2-β3 (human, UniProt Q15858 1-1988; A5A6L6 19-218; O60939 30-215; Q2KI11 23-215); assay: binding FACS, CHO FlpIn
T1 construct: also called huNav1.7-beta1-beta2-beta3; huNav1.7-β1-β2-β3
Procedure, shortened: (§1)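 FLAG3-tagged ISVD, 30 min, 4° C, FACS buffer (PBS/10% FBS/NaN₃); 1×10^5 cells/well; detection murine anti-Flag; PI 1 μg/mL live gate; washes between steps.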

[6] = target: T2, rhNav1.7α + β1-β2-β3 (rhesus monkey); assay: binding FACS, CHO FlpIn
T2 construct: also called rhNav1.7-beta1-beta2-beta3; rhNav1.7-β1-β2-β3
Procedure, shortened: as §1

[7] = target: T3, muNav1.7α (murine, UniProt Q62205 1-1984); assay: binding FACS, HEK JmpIn
T3 construct: HEK JmpIn cells; also called murine Nav1.7α
Procedure, shortened: as §1

[8] = target: T1, huNav1.7α + β1-β2-β3; assay: binding FACS, CHO FlpIn; remark: listed apart in the source
Protocol: (§2) Binding of the ISVDs to cell-expressed Nav1.7α was detected via murine anti-Flag (Sigma, catalog #F1804). Briefly, cells were resuspended in FACS buffer (PBS, 10% FBS, NaN₃) and transferred to a 96-well V-bottom plate at 1×10^5 cells/well. Purified FLAG3-tagged ISVD was diluted in FACS buffer and added to the cells for 30 minutes at 4° C. […] Prior to the read-out, the samples were resuspended in 1 μg/mL propidium iodide (Sigma, catalog #P4170) to exclude dead cells. Between each step, the cells were centrifuged for 5 minutes at 200 grams and washed with 100 μL/well FACS buffer.

[9] = target: T2, rhNav1.7α + β1-β2-β3; assay: binding FACS, CHO FlpIn; remark: listed apart in the source
Protocol: as §2

[10] = target: T3, muNav1.7α; assay: binding FACS, HEK JmpIn; remark: listed apart in the source
[11] = target: T4, rhNav1.7α + β1-β2-β3 (rhesus Nav1.7α co-expressed with Navβ1, Navβ2 and Navβ3 on cells) (rhesus monkey (α subunit); β subunits …); assay: cell-based or functional assay
[12] = target: huNav1.7α + β1 on HEK cells (human, UniProt Q15858 1-1988; Q07699 19-218); assay: cell-based or functional assay
[13] = target: T5, huNav1.7α + β1-β2-β3 (human Nav1.7α co-expressed with human Navβ1, Navβ2 and Navβ3 on cells) (human); assay: binding FACS, CHO FlpIn cells
T5 construct: also called huNav1.7-beta1-beta2-beta3; CHO FlpIn huNav1.7α + β1-β2-β3
Procedure, shortened: as §1

[14] = target: T4, rhNav1.7α + β1-β2-β3 (rhesus Nav1.7α …); assay: binding FACS, CHO FlpIn cells
Procedure, shortened: as §1

[15] = target: T5, huNav1.7α + β1-β2-β3 (human Nav1.7α …); assay: binding FACS, CHO FlpIn cells; remark: listed apart in the source
Protocol: as §2

[16] = target: T4, rhNav1.7α + β1-β2-β3 (rhesus Nav1.7α …); assay: binding FACS, CHO FlpIn cells; remark: listed apart in the source
Protocol: as §2

[17] = target: T6, huNav1.7α + β1-β2-β3 (human Nav1.7α co-expressed with Navβ1, Navβ2 and Navβ3) (human); assay: binding FACS; minus = lower activity than reference
T6 construct: also called huNav1.7-beta1-beta2-beta3

[18] = target: T7, muNav1.7α (murine Nav1.7α) (murine, UniProt Q62205 1-1984); assay: as above
T7 construct: HEK Jmp-In cells

[19] = target: T8, rhNav1.7α + β1-β2-β3 (rhesus Nav1.7α co-expressed with Navβ1, Navβ2 and Navβ3) (rhesus monkey); assay: binding FACS; plus = higher activity than reference
T8 construct: also called rhNav1.7-beta1-beta2-beta3

[20] = target: T7, muNav1.7α (murine Nav1.7α); assay: as above

IC50 [M], electrophysiology, HEK cells [1]: 3.6e-08 M
IC50 [M], electrophysiology, HEK cells [2]: 1.1e-08 M
Qpatch IC50 [3]: 166 nM
Qpatch IC50 [4]: 7 nM
Bmax [5]: 100%
EC50 [5]: 4.2 nM
Bmax [6]: 96%
EC50 [6]: 9.3 nM
Bmax [7]: 18%
EC50 [7]: 48 nM
EC50 [8]: 4.2 nM
EC50 [9]: 9.3 nM
EC50 [10]: 48 nM
B1: F010302363 (VHH)
VHH: EVQLVESGGGVVQPGGSLRLSCAASHRAFIRDVFTGWYRQAPGKQRELVARIYEGGNTQYADSVKGRFTISRDNAKKTVYLQMNSLRPEDTALYYCLFSGTISTGREYRSGDYWGQGTLVTVSS

IC50 [M], in vitro electrophysiology, HEK rhNav1.7α + β1-β2-β3 [11]: 3e-09 M
IC50 [M], in vitro electrophysiology, HEK huNav1.7α + β1 [12]: 2.2e-08 M
Bmax [13]: 100%
EC50 [13]: 6.8 nM
Bmax [14]: 100%
EC50 [14]: 4.5 nM
EC50 [15]: 6.8 nM
EC50 [16]: 4.5 nM
B2: F010302383 (VHH)
VHH: EVQLVESGGGVVQPGGSLRLSCAASGPVFNINRMAWYRQAPGKQRELVAYVTPTGDISYADSVKGRFTISRGGSKRVYLQMNSLRPEDTALYYCRALLQPSSYSGTRTYWGQGTLVTVSS
notes: also called F0103387G04(L11V, A12V, K33R, R39Q, S50Y, S56D, T60A, D72G, W78V, S79Y, T83R, V89L, N93R, D99S, N100cG) + FLAG3-HIS6

EC50 fold change compared to reference [17]: -2 fold
EC50 fold change compared to reference [18]: -4 fold
B3: F010301877 (VHH)
VHH: EVQLVESGGGVVQPGGSLRLSCATTSRAFIRDVFTGWYRRVPGKERELVARIYNGGNTNYADFAKGRFTISRDNAKNMVYLQMNSLRPEDTALYYCLFSGTINTGREYRSGDYWGQGTLVTVSS
notes: also called F0103464B09(L11V, S68T, K76N, T79Y, R81Q, S82aN, N82bS, K83R, G88A, V89L); K76N

EC50 fold change compared to reference [19]: 3 fold
EC50 fold change compared to reference [20]: 3 fold
B4: F010301893 (VHH)
VHH: EVQLVESGGGVVQPGGSLRLSCATTSRAFIRDVFTGWYRRVPGKQRELVARIYNGGNTNYADFAKGRFTISRDNAKKMVYLQMNSLRPEDTALYYCLFSGTINTGREYRSGDYWGQGTLVTVSS
notes: also called F0103464B09(L11V, E44Q, S68T, T79Y, R81Q, S82aN, N82bS, K83R, G88A, V89L); E44Q
